Columns and labels:
Conditions in all cases: both partners purified
[1] = molecular target: T1, cohesin tetramer complex (Smc1-Smc3-Scc1-Scc3) (S. cerevisiae (budding yeast), UniProt P32908 1-1225; P47037 1-1230; Q12158 1-566; P40541 1-1150); experiment: SEC; Superose 6 Increase 3.2/300; 25 mM HEPES-KOH pH 7.6, 100 mM sodium acetate, 0.5 mM TCEP, 2 mM EDTA; proteins at the same molarity incubated together or separately at 30 °C for 5 min; fractions analysed by immunoblotting
T1 construct: Smc1, cohesin subunit, budding yeast; Smc3, cohesin subunit, budding yeast; Scc1, cohesin subunit, budding yeast; Scc3, cohesin subunit, budding yeast; also called cohesin complex; source: purified as previously described (Minamino et al. 2018): IgG agarose, 3C protease cleavage; copies: + + +
T1 sequence (P32908 whole entry, chain 1 of 4, one chain of several): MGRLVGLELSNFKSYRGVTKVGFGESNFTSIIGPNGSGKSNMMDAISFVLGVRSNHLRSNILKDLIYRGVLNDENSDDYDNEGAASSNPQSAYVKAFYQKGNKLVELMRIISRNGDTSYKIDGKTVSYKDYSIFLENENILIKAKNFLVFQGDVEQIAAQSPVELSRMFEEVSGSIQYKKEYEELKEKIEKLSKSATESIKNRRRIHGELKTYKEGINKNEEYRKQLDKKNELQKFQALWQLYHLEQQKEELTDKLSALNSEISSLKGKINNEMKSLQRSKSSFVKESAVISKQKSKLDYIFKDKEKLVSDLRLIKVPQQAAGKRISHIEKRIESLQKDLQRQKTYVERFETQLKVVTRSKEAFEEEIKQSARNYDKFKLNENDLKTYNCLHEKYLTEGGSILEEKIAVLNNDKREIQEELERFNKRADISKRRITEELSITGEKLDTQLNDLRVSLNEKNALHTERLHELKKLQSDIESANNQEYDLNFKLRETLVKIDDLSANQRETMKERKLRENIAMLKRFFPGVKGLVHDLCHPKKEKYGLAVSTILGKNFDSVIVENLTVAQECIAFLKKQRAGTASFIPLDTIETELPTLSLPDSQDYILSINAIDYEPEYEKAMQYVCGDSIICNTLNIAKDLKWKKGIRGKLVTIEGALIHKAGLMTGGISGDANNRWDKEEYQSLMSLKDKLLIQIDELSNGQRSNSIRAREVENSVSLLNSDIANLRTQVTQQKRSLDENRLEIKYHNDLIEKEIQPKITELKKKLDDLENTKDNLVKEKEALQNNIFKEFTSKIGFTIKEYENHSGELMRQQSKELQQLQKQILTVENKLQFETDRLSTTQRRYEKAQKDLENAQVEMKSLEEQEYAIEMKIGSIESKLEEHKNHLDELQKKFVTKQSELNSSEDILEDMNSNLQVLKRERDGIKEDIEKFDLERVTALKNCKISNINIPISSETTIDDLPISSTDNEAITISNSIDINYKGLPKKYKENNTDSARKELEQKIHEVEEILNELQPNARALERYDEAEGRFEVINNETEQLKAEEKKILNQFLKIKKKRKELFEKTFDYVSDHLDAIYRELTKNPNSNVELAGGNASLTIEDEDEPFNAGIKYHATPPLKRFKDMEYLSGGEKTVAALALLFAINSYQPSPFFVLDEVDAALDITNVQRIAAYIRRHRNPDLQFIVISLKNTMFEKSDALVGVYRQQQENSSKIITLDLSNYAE
T1 sequence (Q12158 whole entry, chain 3 of 4, one chain of several): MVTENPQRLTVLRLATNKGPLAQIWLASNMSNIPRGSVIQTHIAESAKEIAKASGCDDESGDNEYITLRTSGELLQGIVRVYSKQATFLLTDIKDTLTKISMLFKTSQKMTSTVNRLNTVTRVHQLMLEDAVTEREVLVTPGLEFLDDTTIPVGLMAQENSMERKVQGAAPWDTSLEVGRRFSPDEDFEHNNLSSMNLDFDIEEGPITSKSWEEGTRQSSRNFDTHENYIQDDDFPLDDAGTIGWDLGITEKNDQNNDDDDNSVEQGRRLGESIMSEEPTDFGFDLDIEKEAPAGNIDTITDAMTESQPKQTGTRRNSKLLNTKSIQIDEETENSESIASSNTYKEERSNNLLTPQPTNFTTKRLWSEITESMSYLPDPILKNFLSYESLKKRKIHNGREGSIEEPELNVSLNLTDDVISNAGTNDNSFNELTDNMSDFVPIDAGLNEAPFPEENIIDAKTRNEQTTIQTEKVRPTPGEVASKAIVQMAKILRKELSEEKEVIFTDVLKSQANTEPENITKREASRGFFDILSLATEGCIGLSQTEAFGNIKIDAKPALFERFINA
T1 sequence (P40541 whole entry, chain 4 of 4, one chain of several): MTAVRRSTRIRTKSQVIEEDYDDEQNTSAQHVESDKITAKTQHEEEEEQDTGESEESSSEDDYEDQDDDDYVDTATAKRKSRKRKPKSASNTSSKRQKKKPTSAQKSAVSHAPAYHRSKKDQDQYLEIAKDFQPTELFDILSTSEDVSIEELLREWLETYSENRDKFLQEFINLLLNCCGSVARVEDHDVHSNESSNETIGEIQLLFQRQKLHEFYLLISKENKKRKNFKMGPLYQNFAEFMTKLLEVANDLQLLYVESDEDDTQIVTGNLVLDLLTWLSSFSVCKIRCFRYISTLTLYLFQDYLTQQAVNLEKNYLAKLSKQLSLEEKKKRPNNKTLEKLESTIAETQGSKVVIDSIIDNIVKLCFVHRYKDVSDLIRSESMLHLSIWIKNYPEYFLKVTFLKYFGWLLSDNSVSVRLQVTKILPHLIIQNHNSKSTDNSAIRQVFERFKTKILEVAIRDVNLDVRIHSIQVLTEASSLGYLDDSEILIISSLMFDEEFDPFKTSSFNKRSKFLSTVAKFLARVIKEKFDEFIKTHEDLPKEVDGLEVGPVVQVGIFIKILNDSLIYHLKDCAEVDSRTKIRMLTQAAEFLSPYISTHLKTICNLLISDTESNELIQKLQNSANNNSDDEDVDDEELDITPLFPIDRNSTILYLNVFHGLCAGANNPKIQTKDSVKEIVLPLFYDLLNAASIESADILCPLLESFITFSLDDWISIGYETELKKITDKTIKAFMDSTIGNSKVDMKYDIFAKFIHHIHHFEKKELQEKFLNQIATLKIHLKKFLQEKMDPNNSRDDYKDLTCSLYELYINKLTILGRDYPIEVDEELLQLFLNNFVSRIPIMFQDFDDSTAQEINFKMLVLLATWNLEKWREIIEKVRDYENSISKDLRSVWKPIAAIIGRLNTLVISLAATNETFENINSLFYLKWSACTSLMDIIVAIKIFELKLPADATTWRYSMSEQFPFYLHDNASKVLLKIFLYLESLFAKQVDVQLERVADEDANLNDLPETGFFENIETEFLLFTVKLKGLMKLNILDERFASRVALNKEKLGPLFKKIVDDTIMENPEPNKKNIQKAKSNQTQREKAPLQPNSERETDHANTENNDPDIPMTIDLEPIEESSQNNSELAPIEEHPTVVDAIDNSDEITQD

Smc3 = molecular target: T2, Smc3 (S. cerevisiae (budding yeast), UniProt P47037 1-1230); experiment: cross-linking; CLMS with sulfo-SDA; cohesin, Tof1-Csm3 and Chl1 with or without Mrc1 at 300-350 nM, 30 °C 5 min, cross-linker 2 h at 4 °C, UV 365 nm; LC-MS/MS, 1% FDR at residue-pair level; two samples merged
T2 construct: Smc3, budding yeast; the Smc3 chain of m1; Stood in the cross-linking sample as a chain of cohesin; source: purified as part of cohesin, as previously described (Minamino et al. 2018)
T2 sequence (looked up): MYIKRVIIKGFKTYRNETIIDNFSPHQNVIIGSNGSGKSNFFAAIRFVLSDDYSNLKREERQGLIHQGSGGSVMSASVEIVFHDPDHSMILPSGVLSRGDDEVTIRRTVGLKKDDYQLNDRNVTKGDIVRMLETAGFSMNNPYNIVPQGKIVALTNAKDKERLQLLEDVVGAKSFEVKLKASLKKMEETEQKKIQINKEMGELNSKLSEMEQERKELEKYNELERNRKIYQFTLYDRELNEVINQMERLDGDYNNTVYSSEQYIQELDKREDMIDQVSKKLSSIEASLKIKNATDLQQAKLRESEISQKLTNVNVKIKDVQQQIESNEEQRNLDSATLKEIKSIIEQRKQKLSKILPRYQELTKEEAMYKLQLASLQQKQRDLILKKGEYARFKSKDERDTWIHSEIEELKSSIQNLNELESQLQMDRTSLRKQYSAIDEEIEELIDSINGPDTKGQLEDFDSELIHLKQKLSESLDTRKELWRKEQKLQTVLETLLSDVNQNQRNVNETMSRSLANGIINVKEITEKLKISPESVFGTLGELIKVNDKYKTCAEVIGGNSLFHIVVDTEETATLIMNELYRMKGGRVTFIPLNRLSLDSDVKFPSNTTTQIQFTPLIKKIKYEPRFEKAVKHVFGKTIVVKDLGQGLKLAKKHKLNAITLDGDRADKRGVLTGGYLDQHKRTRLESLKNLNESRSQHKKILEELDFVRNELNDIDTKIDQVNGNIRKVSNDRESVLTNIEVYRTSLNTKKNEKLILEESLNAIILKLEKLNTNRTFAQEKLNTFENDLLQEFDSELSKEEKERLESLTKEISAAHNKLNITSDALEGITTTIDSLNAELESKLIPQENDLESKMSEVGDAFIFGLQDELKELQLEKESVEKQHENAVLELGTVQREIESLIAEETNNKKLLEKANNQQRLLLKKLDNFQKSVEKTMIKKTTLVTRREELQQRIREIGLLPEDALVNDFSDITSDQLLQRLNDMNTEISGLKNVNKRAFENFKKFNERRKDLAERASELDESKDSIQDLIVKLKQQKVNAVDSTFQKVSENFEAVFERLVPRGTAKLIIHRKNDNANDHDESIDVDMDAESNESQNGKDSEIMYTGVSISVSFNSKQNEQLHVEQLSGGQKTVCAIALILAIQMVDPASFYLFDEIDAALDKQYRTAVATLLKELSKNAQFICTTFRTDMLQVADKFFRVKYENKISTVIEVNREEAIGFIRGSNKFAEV

[2] = molecular target: T3, cohesin trimer (Smc1-Smc3-Scc1) (S. cerevisiae (budding yeast), UniProt P32908 1-1225; P47037 1-1230; Q12158 1-566); experiment: pull-down; Flag-tagged Mrc1 (200-600 nM) held on anti-Flag M2 magnetic beads; with or without a first incubation with Tof1-Csm3, then cohesin (tetramer, trimer or Smc1-Smc3 dimer) or GINS; interaction buffer with 100 mM potassium glutamate; elution with 3x Flag peptide or SDS sample buffer; Coomassie staining; benzonase or NaCl added where indicated
T3 construct: Smc1, cohesin subunit, budding yeast; Smc3, cohesin subunit, budding yeast; Scc1, cohesin subunit, budding yeast; source: purified following the same protocol as cohesin tetramers (IgG agarose, 3C protease cleavage); copies: + +
T3 sequence (P32908 whole entry, chain 1 of 3, one chain of several): as the sequence (P32908 whole entry, chain 1 of 4, one chain of several) above
T3 sequence (Q12158 whole entry, chain 3 of 3, one chain of several): as the sequence (Q12158 whole entry, chain 3 of 4, one chain of several) above

Smc1-Smc3 dimer = molecular target: T4, Smc1-Smc3 dimer (S. cerevisiae (budding yeast), UniProt P32908 1-1225; P47037 1-1230); experiment: as above
T4 construct: Smc1, cohesin subunit, budding yeast; Smc3, cohesin subunit, budding yeast; also called SMC dimer; SMC dimers (Smc1-Smc3); source: purified following the same protocol as cohesin tetramers (IgG agarose, 3C protease cleavage); not shown: Protein A, C-terminal, cleaved
T4 sequence (P32908 whole entry, chain 1 of 2, one chain of several): as the sequence (P32908 whole entry, chain 1 of 4, one chain of several) above

Tof1-Csm3 complex = molecular target: T5, Tof1-Csm3 complex (S. cerevisiae (budding yeast), UniProt P53840 1-1238; Q04659 1-317); experiment: as above
T5 construct: Tof1, budding yeast; Csm3, budding yeast; Held on calmodulin dynabeads when used as bait; source: purified as previously described (Yeeles et al. 2017)
T5 sequence (P53840 whole entry, chain 1 of 2): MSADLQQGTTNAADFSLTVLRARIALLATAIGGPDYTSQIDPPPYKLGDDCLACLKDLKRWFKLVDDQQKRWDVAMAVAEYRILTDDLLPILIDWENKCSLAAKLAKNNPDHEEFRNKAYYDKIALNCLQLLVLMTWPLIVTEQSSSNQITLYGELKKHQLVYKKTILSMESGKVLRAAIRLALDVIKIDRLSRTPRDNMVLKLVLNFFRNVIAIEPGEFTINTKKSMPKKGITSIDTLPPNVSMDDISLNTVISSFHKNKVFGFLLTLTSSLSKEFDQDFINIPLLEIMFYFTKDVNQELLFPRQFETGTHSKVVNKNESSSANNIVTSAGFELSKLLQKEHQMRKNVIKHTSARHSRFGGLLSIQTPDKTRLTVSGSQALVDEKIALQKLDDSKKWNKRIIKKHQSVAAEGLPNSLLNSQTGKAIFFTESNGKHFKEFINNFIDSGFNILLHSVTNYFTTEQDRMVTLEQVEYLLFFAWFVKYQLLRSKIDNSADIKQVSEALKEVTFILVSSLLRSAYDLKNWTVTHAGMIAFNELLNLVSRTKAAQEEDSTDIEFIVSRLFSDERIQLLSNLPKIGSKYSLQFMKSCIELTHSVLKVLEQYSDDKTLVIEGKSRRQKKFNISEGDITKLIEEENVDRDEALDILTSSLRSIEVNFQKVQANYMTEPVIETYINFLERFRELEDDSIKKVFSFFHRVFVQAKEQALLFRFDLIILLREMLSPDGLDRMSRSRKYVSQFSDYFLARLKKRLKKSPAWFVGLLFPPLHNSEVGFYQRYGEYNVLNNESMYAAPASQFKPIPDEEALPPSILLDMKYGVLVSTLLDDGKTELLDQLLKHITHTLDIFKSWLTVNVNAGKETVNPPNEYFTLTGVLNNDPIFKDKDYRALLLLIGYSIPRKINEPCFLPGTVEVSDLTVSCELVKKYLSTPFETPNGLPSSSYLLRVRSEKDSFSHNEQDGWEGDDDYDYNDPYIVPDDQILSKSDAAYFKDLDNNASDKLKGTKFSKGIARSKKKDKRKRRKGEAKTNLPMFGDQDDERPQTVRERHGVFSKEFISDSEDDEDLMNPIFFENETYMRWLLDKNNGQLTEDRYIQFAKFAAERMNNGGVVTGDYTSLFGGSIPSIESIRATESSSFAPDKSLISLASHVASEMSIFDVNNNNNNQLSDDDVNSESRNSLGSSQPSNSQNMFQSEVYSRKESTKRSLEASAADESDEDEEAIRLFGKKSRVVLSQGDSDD
T5 sequence (Q04659 whole entry, chain 2 of 2): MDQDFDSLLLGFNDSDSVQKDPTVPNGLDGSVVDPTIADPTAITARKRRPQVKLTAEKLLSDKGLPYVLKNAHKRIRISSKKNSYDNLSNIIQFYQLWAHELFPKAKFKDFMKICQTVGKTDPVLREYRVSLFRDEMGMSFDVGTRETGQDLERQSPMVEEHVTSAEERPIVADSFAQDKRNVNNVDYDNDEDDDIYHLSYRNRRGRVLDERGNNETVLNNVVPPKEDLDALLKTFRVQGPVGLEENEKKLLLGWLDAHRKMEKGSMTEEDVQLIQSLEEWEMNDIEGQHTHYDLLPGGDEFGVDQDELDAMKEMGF

Measured: binding result

B1: Mrc1 (natural protein, S. cerevisiae (budding yeast), UniProt P25588 1-1096, looked up)
chain: MDDALHALSSLTAKKRTTTYKKVAVPILDENDNTNGNGPNDIDNPPELTGNGFLFANATLNRVKNRLEGKKAPEQNHNNGKDRSENSLPTQLISNLYDGGEELEKSEVKDNSYSEKNVSSSFTQTQRIPVSIQQDKVFNVPIHSVNDGKPTQLIKEDGLVNETSQALKTPLTTGRPGATQRIDSSGATSQTQPIKSIEPQSQIITTSSNHSNALSPKIPIIPTELIGTSPLFQSIQNRGPDTQMDVPPQTAHDEDKTQAIGIPQATHQEQKTQIDTVAQTLQDEVPHTLKIREIQSELASEDSKREKARNVEYKKPQKPIPTKKFFSKESFLADFDDSSSNEDDDIKLENAHPKPVQNDDELHENKSVELNLTDETRINEKRVPLLSSYANNLKREIDSSKCITLDLDSDSDEYGDDDMDSIKLSKDESVLPISQLSKATILNLKARLSKQNQKLSQRPNKSKDPKVDHNVLLNTLRKASRKQILDHQKEVIETKGLKLEDMAKEKEIVENLLEQEILRNKRIRQKEKRREKLEENDFQLNAHDSGSDSGSESSGFALSGNEIADYESSGSENDNRRESDSEKEDDEIILKQKKSHHVKHIINESDSDTEVEAKPKEKADESLPKRIAINLGHYGDNIGEDTDKFQETNVLDTQNIEEVMAERNTIENEVKDDVYVNEEADEAIRRQLIDKEKLQLKQKEKEHEAKIKELKKRGVTNFFEMEAEESEDEWHGIGGADGEGSDDYDSDLEKMIDDYSKNNFNPHEIREMLAAENKEMDIKMINKILYDIKNGGFRNKRAKNSLELELSDDDEDDVLQQYRLKRRELMRKRRLEIGDDAKLVKNPKSSAFFESMVEDIIEYKNPFGAEEEYNLDITSTATDLDTQDNSINVGDNTGNNEQKPVDQKNKKVIISEDFVQKSLSFLKSNNYEDFETDKELSRIQHGNDEAIEDLYTLKQNSSIKSFTNSQTDSTTSKTVNTIIDLEKRPEDEDEVENGDTSLVGVFKHPSIIKSFASRTDINDKFKEGNKTVKILKSYKTVGSSKASITYMGKTRKLIAPKRKTEGSHRYHHDHHNKKMKMKTKTKSNKLFESGQDSFDN
notes: Mrc1, budding yeast; also called Flag-tagged Mrc1; source: purified as previously described (Yeeles et al. 2017)
binds: all assays above
